B1: TRIM55 (parent)
chain: YKSFSKEQQTMDNLEKQLICPICL
B2: TRIM55 (parent)
chain: ICPICLEMFTKPVVILPCQHNLCR

Variants of: B1
Assay: protein stability index of a GFP-peptide fusion (GPS, HEK-293T) (PSI 1-6); higher = more stable
Conditions: c terminus: a fixed tail appended
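Further: lentivirally expressed fusions sorted by FACS into six bins by GFP to DsRed ratio, PSI derived from sequencing read proportions per bin multiplied by bin number.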

Protein stability index: each site, then its substitutions
P21: S 3.16, Q 2.4, F 1.74, K 2.07, T 1.77, A 1.66, L 1.67, Y 3.21, R 1.35, D 1.07, W 2.53, N 1.24, V 2.08, G 2.21
E15: D 2.13, W 1.45, G 2.41, M 2.55, F 2.1, K 2.09, T 2.9, C 2.72, S 1.79, L 1.05, N 2.33, R 2.12, Q 2.58, V 1.27, P 2.51, A 2.79, H 2.27
Q17: K 2.32, M 1.48, L 2, H 2.23, D 2.76, F 2.59, T 1.98, Y 2.02, G 2.16, W 2.31, V 2.01, R 2.22, P 1.68, S 1.72, E 2.32, A 1.79, C 2.12, N 1.89, I 1.65
K16: P 2.57, V 1.76, R 2.03, T 2.23, N 2.07, S 1.81, Y 1.67, W 1.88, E 1.68, F 2.14, A 1.8, C 1.82, G 2.08, L 1.68, D 2.33, M 2.15, H 2.89, Q 1.83, I 1.42
I22: E 2.93, V 1.96, N 3.48, L 2.18, T 2.55, K 2.9, H 2.15, Q 2.03, Y 2.55, M 2.31, G 2.9, F 2.21, C 2.66, A 2.23, S 2.75, P 2.7, D 2.78, R 3.81
L18: M 2.62, P 2.87, K 2.48, I 2.31, N 2.96, Q 2.08, W 1.95, S 2.49, G 2.84, T 2.54, R 3.17, E 3.19, A 2.81, Y 2.18, H 2.75, F 2.55, C 3.72, V 3.42, D 2.98
L24: Q 2.22, C 2.07, T 1.98, N 2.46, W 2.37, G 2.46, S 2.13, P 3.03, M 2.33, D 2, F 2.15, K 2.63, I 2.7, R 2.31, Y 2.88, E 2.13, H 2.5, A 1.92
D12: V 1.89, T 2.42, Y 2.57, S 1.93, N 2.37, Q 2.1, W 2.11, L 2.14, R 1.93, M 2.26, P 2.43
L14: I 2.06, S 2.8, N 2.73, R 2.58, T 3.03, K 2.58, V 2.23, Y 1.98, C 2.51, F 1.88, P 2.7, H 2.13, G 2.6, M 2.53, A 3.03, E 3.2, W 2.81, Q 3.27, D 2.53
I19: H 2.25, N 2.71, A 1.99, D 2.56, Y 2.02, G 2.8, E 3.01, T 2.76, S 2.37, M 1.88, V 2.06, K 2.55, P 2.29, W 1.51, F 2.09, R 2.63, L 1.96, Q 2.81
C20: I 1.62, M 1.82, T 2.44, Y 2.03, G 2.52, S 2.4, E 3.21, V 1.78, F 2.22, R 2.11, H 2.27, A 1.54, P 2.86, W 1.85, L 2.29, D 2.51, N 2.42, Q 2.05, K 1.88
N13: R 1.79, F 2.34, M 1.69, A 1.57, D 2.77, Q 2.53, C 2.02, G 2.35, E 1.87, L 2.82, K 2.09, T 2.81, P 2.03, I 1.77, Y 1.83, W 2.05, V 1.68, H 1.95, S 1.91
C23: Y 2.04, S 2.6, P 1.86, D 3.64, V 1.7, T 2, G 2.67, E 2.85, R 2.37, Q 3.13, M 1.66, N 3.15, W 1.65, K 3.13, I 1.93, L 1.72, A 2.29, F 2.04, H 2.19

Variants of: B2
Assay: as above
Conditions: c terminus: a fixed tail appended

Protein stability index of substitutions, site by site:
C5: S 2.38, K 3.33, P 2.07, G 1.8, V 2.14, L 1.72, W 1.6, N 2.01, T 1.73, F 1.57, H 1.15, Y 2.3, Q 1.18, D 2.05, A 1.93, E 2.28, M 2.09, R 1.22
I1: K 2.75, L 2.72, Q 3.01, Y 1.92, V 2.4, R 2.75, N 2.55, S 2.72, M 2.44, H 2.62, G 2.46, C 2.36, T 2.51, W 2.59, E 2.85, D 2.75, A 2.56, P 2.19, F 2.58
L6: C 2.39, E 3.49, G 2.25, I 2.32, K 2.81, D 2.79, M 2.45, A 2.03, H 2.38, F 2.48, N 2.94
P3: G 1.26, I 3.07, C 1.63, E 2.21, D 2.53, W 1.9, A 1.27, F 1.6, H 2.35, Q 1.2, Y 1.27, M 2.07, R 1.27, T 2.45, N 2.13, L 2.17, V 2.21, K 1.66, S 1.75
C2: A 2.31, E 2.05, V 2.11, H 1.96, Y 2.49, Q 1.73, F 2.02, D 1.96, G 1.77, W 1.22, N 1.78, L 2.04, K 2.15, P 1.93, M 1.67, T 1.6, R 2.03, I 1.56, S 2.55
I4: H 2.26, P 1.94, V 2.51, W 2.34, C 1.83, F 2.67, E 2.33, G 2.03, R 2.87, S 2.72, A 2.07, N 2.25, T 2.31, Y 2.69, L 1.78, D 2.49, Q 3.02, K 2.74, M 1.86
